Source: the supplement of paper PMC7125110
± gives the standard error. Variants at the floor of the assay were thinned out.

B1: glmS ribozyme (parent)
chain: AUAAAAGCGCCAGAACUACAGAAAUGUAGUUGACGAGGAGGAGGUUUAUCGAAUUUUCGGCGGAUGCCUCCAAA

Key:
Conditions in all cases: with glucosamine-6-phosphate
glucosamine-6-phosphate [1] = variants of: B1; test: self-cleavage kobs at 160 uM GlcN6P; higher = faster cleavage; RNA array
Method in brief: (§1)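 Tracking of barcoded ribozyme variants used a hybridised Cy3 probe at 37 °C, after in situ transcription by E. coli RNA polymerase on sequenced MiSeq chips. The flowed solution held 40 μM to 10 mM glucosamine-6-phosphate in HEPES/KCl/Mg(OAc)2 buffer, and imaging ran over ~14 h. kobs was taken from exponential decay fits of normalised per-tile medians, and kcat and KM from weighted Michaelis–Menten fits.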

glucosamine-6-phosphate [2] = variants of: B1; test: self-cleavage kobs at 640 uM GlcN6P; higher = faster cleavage; RNA array
Method in brief: as §1

glucosamine-6-phosphate [3] = variants of: B1; test: self-cleavage kobs at 2500 uM GlcN6P; higher = faster cleavage; RNA array
Method in brief: as §1

glucosamine-6-phosphate [4] = variants of: B1; test: self-cleavage kobs at 10000 uM GlcN6P; higher = faster cleavage; RNA array
Method in brief: as §1

| Variant | self-cleavage kobs at 160 uM GlcN6P (glucosamine-6-phosphate [1]) [s⁻¹] | self-cleavage kobs at 640 uM GlcN6P (glucosamine-6-phosphate [2]) [s⁻¹] | self-cleavage kobs at 2500 uM GlcN6P (glucosamine-6-phosphate [3]) [s⁻¹] | self-cleavage kobs at 10000 uM GlcN6P (glucosamine-6-phosphate [4]) [s⁻¹] |
| --- | --- | --- | --- | --- |
| G29A U31G G62A | < 1e-05 |  |  |  |
| G32U G60C | < 1e-05 | < 1e-05 | < 1e-05 |  |
| U45G U57A G59A G62U | < 1e-05 |  | < 1e-05 | < 1e-05 |
| G37A G59A G62A | < 1e-05 |  |  |  |
| C50G A64C | 7.93e-05 ± 2.1e-05 |  | 6.53e-05 ± 1.7e-05 | 2.52e-05 ± 1.2e-05 |
| G44A U54C U65G C68G | < 1e-05 | < 1e-05 | < 1e-05 |  |
| G32A A42C | < 1e-05 | < 1e-05 | < 1e-05 | < 1e-05 |
| G29C A33C C61G C68U | < 1e-05 | < 1e-05 |  | < 1e-05 |
| G41A G60A G63U | < 1e-05 | < 1e-05 | < 1e-05 | < 1e-05 |
| G29U A39G U56A | 8.2e-05 ± 2.8e-05 | 0.001 ± 0.00039 | 0.00181 ± 0.00055 |  |
| G44C C58A | < 1e-05 | < 1e-05 | < 1e-05 | < 1e-05 |
| C16U G43U U57C | < 1e-05 | < 1e-05 | < 1e-05 |  |
| U47G U54C | 0.000851 ± 0.00032 | 0.0026 ± 0.00053 | 0.00468 ± 0.00094 | 0.0139 ± 0.0032 |
| A15G A33C C58G | < 1e-05 | < 1e-05 |  |  |
| A52C U65C | < 1e-05 | < 1e-05 |  |  |
| C50U G51C | < 1e-05 | < 1e-05 | < 1e-05 |  |
| C34A G66U | < 1e-05 | < 1e-05 |  | < 1e-05 |
| A42C C50U | < 1e-05 | < 1e-05 | < 1e-05 | < 1e-05 |
| A39G G41C U46G A64U | < 1e-05 |  |  |  |
| A53G U55A G66U | 0.000163 ± 4.6e-05 | 0.000436 ± 9.4e-05 | 0.000351 ± 0.00011 |  |
| C16G U47A C50U A53G | < 1e-05 |  |  |  |
| G35A C68U | < 1e-05 |  | < 1e-05 |  |
| U57C G63A | < 1e-05 | < 1e-05 | < 1e-05 | < 1e-05 |
